Measurements: patent publication US20240043530A1 (JIANGSU HENGRUI PHARMACEUTICALS, published 2024)
Like-named read-outs stand apart in the source and are kept apart here.

Assays:
[1] = target: human PVRIG expressed on the cell surface (human) (UniProt Q6DKI7); assay: cell-based or functional assay
[2] = target: T1, human PVRIG expressed on the cell surface (human, UniProt Q6DKI7 41-326); assay: cell-based or functional assay
T1 sequence (looked up): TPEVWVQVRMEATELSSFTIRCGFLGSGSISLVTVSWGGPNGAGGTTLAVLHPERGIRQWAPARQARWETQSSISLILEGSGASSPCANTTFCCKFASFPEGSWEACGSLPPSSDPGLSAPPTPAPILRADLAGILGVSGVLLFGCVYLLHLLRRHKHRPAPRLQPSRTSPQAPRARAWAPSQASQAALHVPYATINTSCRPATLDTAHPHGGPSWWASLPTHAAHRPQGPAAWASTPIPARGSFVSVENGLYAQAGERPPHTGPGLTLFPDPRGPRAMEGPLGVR

[3] = target: T1, human PVRIG expressed on the cell …; assay: cell-based or functional assay; remark: listed apart in the source
[4] = target: T1, human PVRIG expressed on the cell …; assay: cell-based or functional assay; remark: listed apart in the source
[5] = target: T1, human PVRIG expressed on the cell …; assay: cell-based or functional assay; remark: listed apart in the source
[6] = target: T1, human PVRIG expressed on the cell …; assay: cell-based or functional assay; remark: listed apart in the source
[7] = target: T2, cynomolgus monkey PVRIG expressed on the cell surface (cynomolgus monkey, UniProt A0A2K5WVV8 1-322); assay: flow cytometry on cells overexpressing cynomolgus monkey PVRIG, labelled anti-human IgG (method of Example 5)
T2 construct: whole, on cells; also called cells overexpressing cynomolgus monkey PVRIG; Monkey PVRIG FACS
T2 sequence: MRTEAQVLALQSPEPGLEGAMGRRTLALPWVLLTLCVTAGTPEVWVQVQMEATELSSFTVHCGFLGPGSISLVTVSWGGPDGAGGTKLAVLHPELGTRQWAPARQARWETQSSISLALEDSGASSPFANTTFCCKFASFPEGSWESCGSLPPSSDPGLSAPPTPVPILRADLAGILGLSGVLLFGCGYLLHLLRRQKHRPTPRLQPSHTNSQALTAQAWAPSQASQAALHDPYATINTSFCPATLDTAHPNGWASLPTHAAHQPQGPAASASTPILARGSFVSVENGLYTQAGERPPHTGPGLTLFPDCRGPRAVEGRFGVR
Protocol: The expression plasmid carries human or cynomolgus monkey PVRIG gene sequence was transfected into HEK293 cells, and the over-expressing stable transfection monoclonal cell strain was obtained by antibiotic screening and infinite dilution. Overexpressing cells were seeded into a 96-well plate at 2×10⁵ cells/per well. The cells were centrifuged at 300 g for 5 min, the supernatant was then removed, 100 μL of the test antibody was added, and the mixture was incubated at 4° C. for 1 h. The mixture was centrifuged, the supernatant was removed, the plate was washed 3 times with 200 μL of a washing solution (PBS+2% FBS), and then 100 μL of an anti-human IgG secondary antibody (Invitrogen, A-11013) labeled with Alexa Fluor 488 diluted at 1:500 was added. The mixture was incubated at 4° C. for 1 h. The mixture was centrifuged, the supernatant was removed, and the plate was washed 3 times with 200 μL of a washing solution (PBS+2% FBS). Cells were resuspended in 100 μL of PBS and detected by a flow cytometer (BD FACS Calibur or BD FACS Canto_II).
(§1) Binding of the humanized anti-PVRIG/TIGIT bispecific antibodies to human and cynomolgus monkey PVRIG and their blocking of the ligand of human PVRIG were detected according to the methods of Examples 4, 5 and 6.

[8] = target: T3, his-tagged cynomolgus monkey PVRIG recombinant protein (cynomolgus monkey); assay: ELISA, plate coated with cynomolgus monkey PVRIG recombinant protein, HRP anti-human IgG, OD450 (method of Example 4)
T3 construct: expressed in HEK293, purified by Ni-NTA; also called cyno-PVRIG-his; Cynomolgus monkey PVRIG-his
T3 chain: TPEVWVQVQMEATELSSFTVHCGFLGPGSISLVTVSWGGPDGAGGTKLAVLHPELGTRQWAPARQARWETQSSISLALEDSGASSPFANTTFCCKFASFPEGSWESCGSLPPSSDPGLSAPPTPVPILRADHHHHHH
Protocol: Human, cynomolgus monkey or mouse PVRIG protein (at a concentration of 1 μg/mL) was coated on a 96-well microplate at 100 μL per well, and incubated overnight at 4° C. The plate was washed three times with a washing solution at 250 μL per well. For each wash, the plate was shaken for 10 s to ensure adequate cleaning. A blocking solution (PBS+0.05% Tween20+1% BSA) was added at 300 μL per well and the plate was incubated at room temperature for 1 h. The plate was washed three times with a washing solution at 250 μL per well. For each wash, the plate was shaken for 10 s to ensure adequate cleaning. The test anti-PVRIG antibody diluted in diluent was added at 100 μL per well. The mixture was incubated at 37° C. for 1 h. The plate was washed three times with a washing solution at 250 μL per well. HRP-labeled anti-human IgG secondary antibody (Sigma, A8667) was added at 100 μL per well. The mixture was incubated at 37° C. for 1 h. The plate was washed three times with a washing solution at 250 μL per well. […] The OD values at 450 nm were read by using a Thermo MultiSkanFc microplate reader, and the EC₅₀ values of the binding of the anti-PVRIG antibodies to PVRIG were calculated.
as §1

IgG4 control antibody was tested, and the IFNγ (pg/mL) in mixed lymphocyte reaction, 20 nM antibody (control) [1] was 74 pg/mL, the IFNγ (pg/mL) in mixed lymphocyte reaction, 100 nM antibody (control) [1] was 89 pg/mL and the Killing activity (%) of NK92 on K562, 4 nM antibody (control) [1] was 11.2%. The Killing activity (%) of NK92 on K562, 20 nM antibody (control) [1] was 11.7% and the Killing activity (%) of NK92 on K562, 100 nM antibody (control) [1] was 9.2%.

B1: positive antibody Tab5 (antibody, human IgG4 S228P, kappa, F234A L235A, V domains shown)
VH: EVQLVESGGGVVKPGGSLRLSCAASGFTFGTSSMNWVRQAPGKGLEWVAVISFDGTEIHYADSVKGRFTISRDNSKSTVFLQMNSLRPDDTALYYCAKGSGNIYFYSGMDVWGQGTTVTVSS
VL: DIQMTQSPSTLSASVGDRVTITCRAGQSISGWLAWFQQKPGKAPNLLIYETSTLESGVPSRFSGSGSGTEYTLTISSLQPDDFATYYCQQYYSYPLTFGQGTKVEIKR
B1 was tested, and the “Experiment on activity in PVRIG reporter cells EC50” value [2] was 0.74 nM, the “Killing activity (%) of NK92 on K562, 20 nM antibody” value [3] was 32% and the “Killing activity (%) of NK92 on K562, 100 nM antibody” value [3] was 32%. For the same molecule, the “IFNγ (pg/mL) in mixed lymphocyte reaction, 4 nM antibody” value [4] was 912 pg/mL, the “IFNγ (pg/mL) in mixed lymphocyte reaction, 20 nM antibody” value [4] was 1420 pg/mL and the “IFNγ (pg/mL) in mixed lymphocyte reaction, 100 nM antibody” value [4] was 2350 pg/mL. The “Experiment on activity in PVRIG reporter cells EC50” value [5] was 1.38 nM, the “Killing activity (%) of NK92 on K562, 4 nM antibody” value [6] was 5.9% and the “Killing activity (%) of NK92 on K562, 20 nM antibody” value [6] was 7.9%. The “Killing activity (%) of NK92 on K562, 100 nM antibody” value [6] was 10%.

B2: anti-TIGIT antibody 1708 (antibody, human IgG4 S228P, kappa, V domains shown)
VH: EVQLVQSGAEVKKPGASVKVSCKASGYTFTNYWMHWVRQAPGQGLEWMGRIDPDSTGSKYNEKFKTRVTMTRDTSTSTVYMELSSLRSEDTAVYYCAREGAYGYYFDYWGQGTLVTVSS
VL: DIQMTQSPSSLSASVGDRVTITCRASENIYSYLAWYQQKPGKSPKLLIYNARTLAEGVPSRFSGSGSGTDFTLTISSLQPEDFATYYCQYHSGSPLPFGGGTKVEIKR
notes: human IgG4 subtype with S228P; kappa light chain
B2: no binding (tested: about 200 nM) [7]; no binding (tested: about 20 nM) [8].
